Biological target: T1, Haemopexin (Oryctolagus cuniculus, UniProt P20058)
T1 chain: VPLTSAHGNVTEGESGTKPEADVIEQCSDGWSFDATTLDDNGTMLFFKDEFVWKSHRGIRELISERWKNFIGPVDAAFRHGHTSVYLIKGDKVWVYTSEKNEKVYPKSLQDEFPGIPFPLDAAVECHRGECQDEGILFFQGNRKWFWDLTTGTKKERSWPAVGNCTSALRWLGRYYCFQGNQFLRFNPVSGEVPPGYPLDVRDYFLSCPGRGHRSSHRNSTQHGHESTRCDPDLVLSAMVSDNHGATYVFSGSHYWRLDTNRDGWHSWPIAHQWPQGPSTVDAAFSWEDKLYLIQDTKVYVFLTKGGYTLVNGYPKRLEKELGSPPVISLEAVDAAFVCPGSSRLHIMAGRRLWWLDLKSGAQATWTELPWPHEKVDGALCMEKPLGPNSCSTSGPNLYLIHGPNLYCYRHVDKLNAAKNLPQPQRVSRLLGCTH
Assay: ITC; given as Ka

B1: HxuA (protein)
chain: STQGLPQQGLPQQGLPQEDKVVVGQATFDKTIADKMTINQTSDKVQINWHSFDIGQNKEVEFKQPSENSVAYNRVTGGNASQIQGKLTANGKVYLANPNGVIITKGAEINVAGLLATTKDLEQISENSNSYQFTRKTKDRQVVKEGQVINEGEIKAKDFVVLNGDEVINKGNINVEKNSTINGKVYLSSGYNFTFTLSDSGISVALEDNTVRGIVQNEGSIKAGEITLSAKGRKEALDSLVMNNGVLEATKVSNRNGKVVLSADNVQLNNESNIKGEIVNFGTEVTSNEDKKLKITSKTGSKVTSPKINFKGKSVNINGNFGRENSGTHYNEERKTLNTEVNIDVPGAENIRIADDKDNTETDSFIQTEALSSLLANNGKVNLKGNDVNISGNINIDSFRGTDSLLKLTNQGHINIDHADINSKGRLFVVTSLQNDVDFKSNITITDSKINLGNGAMGLGRSVNEDDYATRWKRAEKSQRKKFNVDMRNVVFNQVDEVILAGGFEKVNLDKIVATGQTNFYIDGGVSRNNSRYEYGVLDLDYRTQLSELEQGRRRWRYYRDLDLDMNKAYLYRFDLFAKNNSGRSTIKGTEINISNSNINLKNGFVHLLAENIKLDNSKVDITFDKDNSQDTLAQTNRLGMNGKVSMINSHIKIVGDEKEGISPTGTYATMFLIGELIGEKSSIFVKSHQGYTFKTDGDTKIAGKNSKEDLKITAINTGGRAAEEVLINGALGSADNDANIANMAFTIGDSANTKTTIENADITALAPNGGTAYLSSKDVEIEVKPNSNFTFFELPREKNLNQTKINGASTKLSERGFARLYDKINGVRASNLSAEQLNVTDASEKIINTKLVSSLDVEKLVSVAVCDAGNGCEEQQFGDKGNNTKVSVGELEAEQ
Kd: < 1 nM

— publication PMC4873976, “Structural basis for haem piracy from host haemopexin by Haemophilus influenzae” (Nature Communications, 2016)
